This passage reports OD450 nm and Ratio OD(Variant)/OD(WT) results from patent US20240400654A1.

“And” between values parts separate entries of the source, which are not always exact repeats. Identical values can stand only once.

The target in assay [1] is HRgpA-6H (Porphyromonas gingivalis) (UniProt P28784). Kind of assay: ELISA, FASEBA screening, coated HRgpA-6H 0.0625 ug/ml. In general terms: ELISA stands for enzyme-linked immunosorbent assay.
For assay [2] the target is unchanged. Kind of assay: ELISA, FASEBA screening, coated HRgpA-6H; variant OD over parental WT Fab OD.

Sequence of UniProt P28784 (P28784 228-860): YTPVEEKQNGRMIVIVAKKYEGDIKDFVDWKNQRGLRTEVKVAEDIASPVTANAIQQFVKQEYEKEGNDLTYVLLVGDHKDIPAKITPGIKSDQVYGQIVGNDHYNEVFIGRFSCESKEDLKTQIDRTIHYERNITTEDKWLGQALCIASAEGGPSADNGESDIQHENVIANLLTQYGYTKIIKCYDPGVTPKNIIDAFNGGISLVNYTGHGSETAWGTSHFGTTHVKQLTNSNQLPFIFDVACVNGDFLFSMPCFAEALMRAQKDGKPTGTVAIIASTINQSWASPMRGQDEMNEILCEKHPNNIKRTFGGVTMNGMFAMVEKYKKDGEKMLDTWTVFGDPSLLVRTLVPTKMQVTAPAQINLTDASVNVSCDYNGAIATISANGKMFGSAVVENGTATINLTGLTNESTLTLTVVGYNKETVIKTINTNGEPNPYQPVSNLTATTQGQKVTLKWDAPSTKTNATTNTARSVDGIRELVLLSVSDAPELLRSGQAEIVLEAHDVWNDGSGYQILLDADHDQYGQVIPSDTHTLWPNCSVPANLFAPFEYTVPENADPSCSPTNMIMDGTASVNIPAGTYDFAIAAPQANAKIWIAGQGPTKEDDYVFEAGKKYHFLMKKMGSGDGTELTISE

B1: KB001 parental mouse Fab FASEBA variant VH K64Q (Fab, V domains shown)
VH: EVQLKQSGPGLVAPSQSLSITCTVSGFSLSIYSVHWVRQPPGKGLEWLGMIWGGGSSDYNSALQSRLSISKDNSKSQVFLKMNSLQTDDTAMYYCARNGNFYAMDYWGQGTSVTVSS
VL: QIVLTQSPAIMSASLGERVTMTCTASSSVSSSFLHWYQQKPGSSPQLWIYSTSNLASGVPARFSGSGSGTSYSLTISSMEAEDAATYYCHQYHHSPYIYTFGGGTKLEIK
Molecule B1 had an OD450 nm in assay [1] of 0.789. Besides, the Ratio OD(Variant)/OD(WT) in assay [2] is 0.954.

B2: KB001 parental mouse Fab FASEBA variant VH S65L (Fab, V domains shown)
VH: EVQLKQSGPGLVAPSQSLSITCTVSGFSLSIYSVHWVRQPPGKGLEWLGMIWGGGSSDYNSALKLRLSISKDNSKSQVFLKMNSLQTDDTAMYYCARNGNFYAMDYWGQGTSVTVSS
VL: QIVLTQSPAIMSASLGERVTMTCTASSSVSSSFLHWYQQKPGSSPQLWIYSTSNLASGVPARFSGSGSGTSYSLTISSMEAEDAATYYCHQYHHSPYIYTFGGGTKLEIK
On to B2, for which the OD450 nm in assay [1] was determined as 0.728. In addition, in assay [2], the Ratio OD(Variant)/OD(WT) was found to be 0.88.

B3: KB001 parental mouse Fab FASEBA variant VH S65H (Fab, V domains shown)
VH: EVQLKQSGPGLVAPSQSLSITCTVSGFSLSIYSVHWVRQPPGKGLEWLGMIWGGGSSDYNSALKHRLSISKDNSKSQVFLKMNSLQTDDTAMYYCARNGNFYAMDYWGQGTSVTVSS
VL: QIVLTQSPAIMSASLGERVTMTCTASSSVSSSFLHWYQQKPGSSPQLWIYSTSNLASGVPARFSGSGSGTSYSLTISSMEAEDAATYYCHQYHHSPYIYTFGGGTKLEIK
Regarding B3, the OD450 nm in assay [1] was 0.823 and 0.767. Moreover, the Ratio OD(Variant)/OD(WT) in assay [2] is 0.995 and 0.927.

B4: KB001 parental mouse Fab FASEBA variant VH S65Y (Fab, V domains shown)
VH: EVQLKQSGPGLVAPSQSLSITCTVSGFSLSIYSVHWVRQPPGKGLEWLGMIWGGGSSDYNSALKYRLSISKDNSKSQVFLKMNSLQTDDTAMYYCARNGNFYAMDYWGQGTSVTVSS
VL: QIVLTQSPAIMSASLGERVTMTCTASSSVSSSFLHWYQQKPGSSPQLWIYSTSNLASGVPARFSGSGSGTSYSLTISSMEAEDAATYYCHQYHHSPYIYTFGGGTKLEIK
B4 came in with an OD450 nm in assay [1] of 0.724. Moreover, the Ratio OD(Variant)/OD(WT) in assay [2] was 0.875.

B5: KB001 parental mouse Fab FASEBA variant VH S65T (Fab, V domains shown)
VH: EVQLKQSGPGLVAPSQSLSITCTVSGFSLSIYSVHWVRQPPGKGLEWLGMIWGGGSSDYNSALKTRLSISKDNSKSQVFLKMNSLQTDDTAMYYCARNGNFYAMDYWGQGTSVTVSS
VL: QIVLTQSPAIMSASLGERVTMTCTASSSVSSSFLHWYQQKPGSSPQLWIYSTSNLASGVPARFSGSGSGTSYSLTISSMEAEDAATYYCHQYHHSPYIYTFGGGTKLEIK
On to B5, for which the OD450 nm in assay [1] was 0.759. The Ratio OD(Variant)/OD(WT) in assay [2] worked out at 0.918.

B6: KB001 parental mouse Fab FASEBA variant VH K64E (Fab, V domains shown)
VH: EVQLKQSGPGLVAPSQSLSITCTVSGFSLSIYSVHWVRQPPGKGLEWLGMIWGGGSSDYNSALESRLSISKDNSKSQVFLKMNSLQTDDTAMYYCARNGNFYAMDYWGQGTSVTVSS
VL: QIVLTQSPAIMSASLGERVTMTCTASSSVSSSFLHWYQQKPGSSPQLWIYSTSNLASGVPARFSGSGSGTSYSLTISSMEAEDAATYYCHQYHHSPYIYTFGGGTKLEIK
In the case of B6, the OD450 nm in assay [1] was determined as 0.789. The Ratio OD(Variant)/OD(WT) in assay [2] is 0.954.

B7: KB001 parental mouse Fab FASEBA variant VH S65F (Fab, V domains shown)
VH: EVQLKQSGPGLVAPSQSLSITCTVSGFSLSIYSVHWVRQPPGKGLEWLGMIWGGGSSDYNSALKFRLSISKDNSKSQVFLKMNSLQTDDTAMYYCARNGNFYAMDYWGQGTSVTVSS
VL: QIVLTQSPAIMSASLGERVTMTCTASSSVSSSFLHWYQQKPGSSPQLWIYSTSNLASGVPARFSGSGSGTSYSLTISSMEAEDAATYYCHQYHHSPYIYTFGGGTKLEIK
For the molecule B7, in assay [1], the OD450 nm is 0.74. The Ratio OD(Variant)/OD(WT) in assay [2] stood at 0.895.

B8: KB001 parental mouse Fab FASEBA variant VH S65P (Fab, V domains shown)
VH: EVQLKQSGPGLVAPSQSLSITCTVSGFSLSIYSVHWVRQPPGKGLEWLGMIWGGGSSDYNSALKPRLSISKDNSKSQVFLKMNSLQTDDTAMYYCARNGNFYAMDYWGQGTSVTVSS
VL: QIVLTQSPAIMSASLGERVTMTCTASSSVSSSFLHWYQQKPGSSPQLWIYSTSNLASGVPARFSGSGSGTSYSLTISSMEAEDAATYYCHQYHHSPYIYTFGGGTKLEIK
In assay [1], B8 yielded an OD450 nm of 0.814. Besides, the Ratio OD(Variant)/OD(WT) in assay [2] was found to be 0.984.

B9: KB001 parental mouse Fab FASEBA variant VH S65G (Fab, V domains shown)
VH: EVQLKQSGPGLVAPSQSLSITCTVSGFSLSIYSVHWVRQPPGKGLEWLGMIWGGGSSDYNSALKGRLSISKDNSKSQVFLKMNSLQTDDTAMYYCARNGNFYAMDYWGQGTSVTVSS
VL: QIVLTQSPAIMSASLGERVTMTCTASSSVSSSFLHWYQQKPGSSPQLWIYSTSNLASGVPARFSGSGSGTSYSLTISSMEAEDAATYYCHQYHHSPYIYTFGGGTKLEIK
With B9, the OD450 nm in assay [1] is 0.825. The Ratio OD(Variant)/OD(WT) in assay [2] was found to be 0.998.

B10: KB001 parental mouse Fab FASEBA variant VH K64M (Fab, V domains shown)
VH: EVQLKQSGPGLVAPSQSLSITCTVSGFSLSIYSVHWVRQPPGKGLEWLGMIWGGGSSDYNSALMSRLSISKDNSKSQVFLKMNSLQTDDTAMYYCARNGNFYAMDYWGQGTSVTVSS
VL: QIVLTQSPAIMSASLGERVTMTCTASSSVSSSFLHWYQQKPGSSPQLWIYSTSNLASGVPARFSGSGSGTSYSLTISSMEAEDAATYYCHQYHHSPYIYTFGGGTKLEIK
For B10, in assay [1], the OD450 nm was found to be 0.784. Also, the Ratio OD(Variant)/OD(WT) in assay [2] turned out to be 0.948.

B11: KB001 parental mouse Fab FASEBA variant VH K64L (Fab, V domains shown)
VH: EVQLKQSGPGLVAPSQSLSITCTVSGFSLSIYSVHWVRQPPGKGLEWLGMIWGGGSSDYNSALLSRLSISKDNSKSQVFLKMNSLQTDDTAMYYCARNGNFYAMDYWGQGTSVTVSS
VL: QIVLTQSPAIMSASLGERVTMTCTASSSVSSSFLHWYQQKPGSSPQLWIYSTSNLASGVPARFSGSGSGTSYSLTISSMEAEDAATYYCHQYHHSPYIYTFGGGTKLEIK
B11: the OD450 nm in assay [1] came to 0.664. For the same molecule, the Ratio OD(Variant)/OD(WT) in assay [2] was found to be 0.803.

B12: KB001 parental mouse Fab FASEBA variant VH S65R (Fab, V domains shown)
VH: EVQLKQSGPGLVAPSQSLSITCTVSGFSLSIYSVHWVRQPPGKGLEWLGMIWGGGSSDYNSALKRRLSISKDNSKSQVFLKMNSLQTDDTAMYYCARNGNFYAMDYWGQGTSVTVSS
VL: QIVLTQSPAIMSASLGERVTMTCTASSSVSSSFLHWYQQKPGSSPQLWIYSTSNLASGVPARFSGSGSGTSYSLTISSMEAEDAATYYCHQYHHSPYIYTFGGGTKLEIK
For B12, the OD450 nm in assay [1] is 0.794. Further, in assay [2], the Ratio OD(Variant)/OD(WT) came to 0.96.

B13: KB001 parental mouse Fab FASEBA variant VH K64D (Fab, V domains shown)
VH: EVQLKQSGPGLVAPSQSLSITCTVSGFSLSIYSVHWVRQPPGKGLEWLGMIWGGGSSDYNSALDSRLSISKDNSKSQVFLKMNSLQTDDTAMYYCARNGNFYAMDYWGQGTSVTVSS
VL: QIVLTQSPAIMSASLGERVTMTCTASSSVSSSFLHWYQQKPGSSPQLWIYSTSNLASGVPARFSGSGSGTSYSLTISSMEAEDAATYYCHQYHHSPYIYTFGGGTKLEIK
For B13, the OD450 nm in assay [1] amounted to 0.781. Also, the Ratio OD(Variant)/OD(WT) in assay [2] was found to be 0.944.

B14: KB001 parental mouse Fab FASEBA variant VH G99F (Fab, V domains shown)
VH: EVQLKQSGPGLVAPSQSLSITCTVSGFSLSIYSVHWVRQPPGKGLEWLGMIWGGGSSDYNSALKSRLSISKDNSKSQVFLKMNSLQTDDTAMYYCARNFNFYAMDYWGQGTSVTVSS
VL: QIVLTQSPAIMSASLGERVTMTCTASSSVSSSFLHWYQQKPGSSPQLWIYSTSNLASGVPARFSGSGSGTSYSLTISSMEAEDAATYYCHQYHHSPYIYTFGGGTKLEIK
In turn, B14 registered an OD450 nm in assay [1] of 0.771. In assay [2], the Ratio OD(Variant)/OD(WT) was determined as 0.967.
